Like-named read-outs stand apart in the source and are kept apart here. One block for each binder: values may come before it. Bridge positions count the residues as written; N and C are the ends. Square brackets hold non-standard residues; d marks the D form. Ends that are not written are not given here. NMeL = CN[C@@H](CC(C)C)C(=O)O; Pen = CC(C)(S)[C@H](N)C(=O)O; Sar = CNCC(=O)O
What was measured:
[1] = biological target: T1, soluble human FcRn (shFcRn) (human, UniProt P55899 24-297; P61769 21-119); experiment: IgG competition ELISA
T1 construct: Biotinylated for the ELISA, amine-coupled to a CM5 chip for SPR; also called biotinylated shFcRn
Procedure: (§1) The wells were coated with 100 μl/well of 1 μg/ml biotinylated-shFcRn in Buffer A. The plate was sealed and incubated at 37° C. for 2 hours. Afterwards, the plate was washed with 200 μl/well of Buffer B (Buffer B: 100 mM MES pH 6, 150 mM NaCl, 0.5% BSA IgG-free (Jackson ImmunoResearch, West Grove, Pa.), 0.05% Tween-20). […] To allow for mixing, the plate was rocked for 2 minutes, sealed and incubated at 37° C. for 2 hours. […] The plate was covered, incubated for 30 minutes at room temperature and washed 4 times with 200 μl/well of ice-cold buffer B. SureBlue TMB substrate solution (100 μl/well, KPL, Gaithersburg, Md.) was added and the plate was allowed to incubate at room temperature until color developed, which took 5 to 10 minutes. Once color developed, 100 μl/well of TMB stop solution (KPL, Gaithersburg, Md.) was added and the absorbance was measured at 450 nm. The data was plotted as absorbance vs. peptide concentration to derive the inhibitory concentration 50% (IC₅₀) values.

[2] = biological target: T1, soluble human FcRn (shFcRn); experiment: SPR pH 7.4
Procedure: (§2) The following steps were performed to cross-link soluble human or cynomolgus FcRn to the dextran surface of a CM5 sensor chip (Biacore AB, Uppsala, Sweden) by an amine coupling reaction involving 1-ethyl-(3-dimethylaminopropyl)-carbodiimide hydrochloride (EDC) (Biacore AB, Uppsala, Sweden) and N-hydroxysuccinimide (NHS) (Biacore AB, Uppsala, Sweden) as recommended by Biacore (BIAapplications Handbook, version AB, section 4.2, Biacore AB, Uppsala, Sweden). […] Residual sites on the FcRn flow cell were blocked with 1 M ethanolamine hydrochloride pH 8.5 (Biacore AB, Uppsala, Sweden). A control flow cell was blocked with ethanolamine for reference subtraction. For analysis of the monomeric peptides, FcRn was coated to a final density of 4000-5000 response units (RU). For analysis of the peptide dimers, FcRn was coated to a density of 2000-2500 RU. All SPR measurements were performed using a BIACORE 3000 Instrument (Biacore AB Uppsala, Sweden). For measurements done at either pH 6 or pH 7.4, experiments were performed in 50 mM phosphate, 100 mM sodium chloride, 0.01% surfactant P20 (Biacore AB, Uppsala, Sweden).
(§3) Ten, 2-fold dilutions of the peptide were injected over the FcRn-CM5 chip at a rate of 20 μl/min for 2 min. The peptide was dissociated from the chip for 2.5 minutes with buffer. […] Sensorgrams were generated and analyzed using BiaEval software version 3.1 (Biacore AB, Uppsala, Sweden). […]

[3] = biological target: T1, soluble human FcRn (shFcRn); experiment: SPR pH 6; 2-PyrrolidinylAla in place of His
Procedure: as §2, §3

[4] = biological target: T1, soluble human FcRn (shFcRn); experiment: SPR pH 6
Procedure: as §2
(§4) Ten, 2-fold dilutions of the peptide were injected over the FcRn-CM5 chip at a rate of 20 μl/min for 2 min. The peptide was dissociated from the chip for 2.5 minutes with buffer. Any remaining peptide was removed from the chip with a 30 second injection of HBS-P buffer (Biacore AB, Uppsala, Sweden) at a rate of 30 μl/min. Sensorgrams were generated and analyzed using BiaEval software version 3.1 (Biacore AB, Uppsala, Sweden). The equilibrium RU observed for each injection was plotted against concentration. The equilibrium KD values were derived by analysis of the plots using the steady state affinity model included in the BiaEval software.

[5] = biological target: T1, soluble human FcRn (shFcRn); experiment: SPR pH 6; remark: listed apart in the source
Procedure: as §2, §4

[6] = biological target: T1, soluble human FcRn (shFcRn); experiment: SPR pH 6; remark: listed apart in the source
Procedure: as §2, §3

[7] = biological target: T1, soluble human FcRn (shFcRn); experiment: SPR pH 6; remark: listed apart in the source
Procedure: as §2, §4

[8] = biological target: T1, soluble human FcRn (shFcRn); experiment: SPR pH 6; remark: listed apart in the source
Procedure: as §2, §3

[9] = biological target: T1, soluble human FcRn (shFcRn); experiment: SPR pH 6; remark: listed apart in the source
Procedure: as §2, §4

[10] = biological target: T1, soluble human FcRn (shFcRn); experiment: SPR pH 6; remark: listed apart in the source
Procedure: as §2, §4

[11] = biological target: T1, soluble human FcRn (shFcRn); experiment: SPR pH 6; remark: listed apart in the source
Procedure: as §2, §3

[12] = biological target: T1, soluble human FcRn (shFcRn); experiment: SPR pH 6; remark: listed apart in the source
Procedure: as §2, §4

[13] = biological target: T1, soluble human FcRn (shFcRn); experiment: SPR pH 6; remark: listed apart in the source
Procedure: as §2, §3

[14] = biological target: T1, soluble human FcRn (shFcRn); experiment: SPR pH 6; remark: listed apart in the source
Procedure: as §2, §4

[15] = biological target: T1, soluble human FcRn (shFcRn); experiment: IgG competition ELISA; remark: listed apart in the source
Procedure: as §1

[16] = biological target: T1, soluble human FcRn (shFcRn); experiment: IgG competition ELISA; remark: listed apart in the source
Procedure: as §1

[17] = biological target: T1, soluble human FcRn (shFcRn); experiment: IgG competition ELISA; remark: listed apart in the source
Procedure: as §1

[18] = biological target: T1, soluble human FcRn (shFcRn); experiment: IgG competition ELISA; remark: listed apart in the source
Procedure: as §1

[19] = biological target: T1, soluble human FcRn (shFcRn); experiment: IgG competition ELISA; remark: listed apart in the source
Procedure: as §1

[20] = biological target: T1, soluble human FcRn (shFcRn); experiment: IgG competition ELISA; remark: listed apart in the source
Procedure: as §1

[21] = biological target: T1, soluble human FcRn (shFcRn); experiment: IgG competition ELISA; remark: listed apart in the source
[22] = biological target: T1, soluble human FcRn (shFcRn); experiment: IgG competition ELISA; remark: listed apart in the source
[23] = biological target: T1, soluble human FcRn (shFcRn); experiment: IgG competition ELISA; remark: listed apart in the source
Procedure: as §1

[24] = biological target: T1, soluble human FcRn (shFcRn); experiment: IgG competition ELISA; remark: listed apart in the source
Procedure: as §1

[25] = biological target: T1, soluble human FcRn (shFcRn); experiment: IgG competition ELISA; remark: listed apart in the source
Procedure: as §1

[26] = biological target: T1, soluble human FcRn (shFcRn); experiment: SPR pH 6; 3PyridylAla in place of His
Procedure: as §2, §3

[27] = biological target: T1, soluble human FcRn (shFcRn); experiment: SPR pH 7.4; 3PyridylAla in place of His
Procedure: as §2, §3

[28] = biological target: T1, soluble human FcRn (shFcRn); experiment: IgG competition ELISA; remark: listed apart in the source
Procedure: as §1

[29] = biological target: T1, soluble human FcRn (shFcRn); experiment: SPR pH 6; Peptide No. 31: lower-case c at both Cys (QRF-c-…-c-NGP)
Procedure: as §2, §3

[30] = biological target: T1, soluble human FcRn (shFcRn); experiment: SPR pH 6; 4-PyridylAla in place of His
Procedure: as §2, §3

[31] = biological target: T1, soluble human FcRn (shFcRn); experiment: SPR pH 7.4; 4-PyridylAla in place of His
Procedure: as §2, §3

[32] = biological target: T1, soluble human FcRn (shFcRn); experiment: SPR pH 6; Orn in place of His
Procedure: as §2, §3

[33] = biological target: T1, soluble human FcRn (shFcRn); experiment: SPR pH 6; 4-PiperidylAla in place of His
Procedure: as §2, §3

[34] = biological target: T1, soluble human FcRn (shFcRn); experiment: SPR pH 7.4; 4-PiperidylAla in place of His
Procedure: as §2, §3

[35] = biological target: T1, soluble human FcRn (shFcRn); experiment: SPR pH 6; ThienylAla in place of His
Procedure: as §2, §3

[36] = biological target: T1, soluble human FcRn (shFcRn); experiment: SPR pH 7.4; ThienylAla in place of His
Procedure: as §2, §3

B2: Peptide No. 24 (peptide)
peptide: QRFCTGHF[dA][dA]LYPCNGP-NH2
modifications: disulfide 4-14; N-terminus assumed
SMILES: CC(C)C[C@@H]1NC(=O)[C@@H](C)NC(=O)[C@@H](C)NC(=O)[C@H](Cc2ccccc2)NC(=O)[C@H](Cc2c[nH]cn2)NC(=O)CNC(=O)[C@H]([C@@H](C)O)NC(=O)[C@@H](NC(=O)[C@H](Cc2ccccc2)NC(=O)[C@H](CCCNC(=N)N)NC(=O)[C@@H](N)CCC(N)=O)CSSC[C@@H](C(=O)N[C@@H](CC(N)=O)C(=O)NCC(=O)N2CCC[C@H]2C(N)=O)NC(=O)[C@@H]2CCCN2C(=O)[C@H](Cc2ccc(O)cc2)NC1=O
Kd [2]: > 250 µM

B3: Peptide No. 32 (peptide)
peptide: QRF[Pen]TGHFGGLYPCNGP-NH2
modifications: disulfide 4-14; N-terminus assumed
SMILES: CC(C)C[C@@H]1NC(=O)CNC(=O)CNC(=O)[C@H](Cc2ccccc2)NC(=O)[C@H](Cc2c[nH]cn2)NC(=O)CNC(=O)[C@H]([C@@H](C)O)NC(=O)[C@@H](NC(=O)[C@H](Cc2ccccc2)NC(=O)[C@H](CCCNC(=N)N)NC(=O)[C@@H](N)CCC(N)=O)C(C)(C)SSC[C@@H](C(=O)N[C@@H](CC(N)=O)C(=O)NCC(=O)N2CCC[C@H]2C(N)=O)NC(=O)[C@@H]2CCCN2C(=O)[C@H](Cc2ccc(O)cc2)NC1=O
Kd [4]: 0.25 µM
Kd [5]: 0.25 µM
Kd [6]: 0.25 µM
Kd [7]: 0.25 µM
Kd [8]: 0.25 µM
Kd [9]: 0.25 µM
Kd [10]: 0.25 µM
Kd [11]: 0.25 µM
Kd [12]: 0.25 µM
Kd [13]: 0.25 µM
Kd [14]: 0.25 µM
IC50 [15]: 2 µM
IC50 [16]: 2 µM
IC50 [17]: 2 µM
IC50 [18]: 2 µM
IC50 [19]: 2 µM
IC50 [20]: 2 µM
IC50 [21]: 2 µM
IC50 [22]: 2 µM
IC50 [23]: 2 µM
IC50 [24]: 2 µM
IC50 [25]: 2 µM

Binder: RFCTGXFGGLYPC (Pen 3; 3PyridylAla 6; Sar 9; NMeL 10; disulfide 3-13; C-terminal amide) [Peptide No. 250]
IC50 [25]: 1.2 µM
Kd [26]: 0.064 µM
Kd [27]: 0.26 µM

Binder: QRFVTGHFG[dP]LYPVNGP-NH2 [Peptide No. 167]
IC50 [28]: 93 µM

B4: Peptide No. 31 (peptide)
peptide: QRF[dC]TGHFGGLYP[dC]NGP-NH2
modifications: disulfide 4-14; N-terminus assumed
SMILES: CC(C)C[C@@H]1NC(=O)CNC(=O)CNC(=O)[C@H](Cc2ccccc2)NC(=O)[C@H](Cc2c[nH]cn2)NC(=O)CNC(=O)[C@H]([C@@H](C)O)NC(=O)[C@H](NC(=O)[C@H](Cc2ccccc2)NC(=O)[C@H](CCCNC(=N)N)NC(=O)[C@@H](N)CCC(N)=O)CSSC[C@H](C(=O)N[C@@H](CC(N)=O)C(=O)NCC(=O)N2CCC[C@H]2C(N)=O)NC(=O)[C@@H]2CCCN2C(=O)[C@H](Cc2ccc(O)cc2)NC1=O
IC50 [15]: > 500 µM
Kd [29]: 200 µM

Binder: RFCTGXFGGLYPC (Pen 3; ThienylAla 6; Sar 9; NMeL 10; disulfide 3-13; C-terminal amide) [Peptide No. 251]
IC50 [25]: 45 µM
Kd [35]: 2 µM
Kd [36]: 3 µM

More lines, now with the values ahead:

IC50 [1]: 0.018 µM
B1: Peptide No. 289 (peptide)
peptide: RF[Pen]TGHFG[Sar][NMeL]YPC-NH2
modifications: disulfide 3-13; also: dimer: N-termini joined by an Asp linker carrying PEG 30 kDa, further groups not given here
notes: site of PEG only in drawing CHEM-US-00136; also called Pegylated Analog of Peptide No. 285

Kd [3]: 8.4 µM
Binder: RFCTGXFGGLYPC (Pen 3; 2-PyrrolidinylAla 6; Sar 9; NMeLeu 10; disulfide 3-13; C-terminal amide) [Peptide No. 262]

IC50 [25]: 1.3 µM
Kd [30]: 0.067 µM
Kd [31]: 0.28 µM
Binder: RFCTGXFGGLYPC (Pen 3; 4-PyridylAla 6; Sar 9; NMeLeu 10; disulfide 3-13; C-terminal amide) [Peptide No. 268]

Kd [32]: 1.3 µM
Binder: RFCTGXFGGLYPC (Pen 3; Orn 6; Sar 9; NMeL 10; disulfide 3-13; C-terminal amide) [Peptide No. 254]

IC50 [25]: 85 µM
Kd [33]: 5.2 µM
Kd [34]: 6.4 µM
Binder: RFCTGXFGGLYPC (Pen 3; 4-PiperidylAla 6; Sar 9; NMeLeu 10; disulfide 3-13; C-terminal amide) [Peptide No. 264]
